Here are results for 57 sequences from the supplement of paper PMC10598134.

± gives the standard deviation.

The nature of this data set: collision cross section of modified peptide (TIMS, N2, iRT-aligned); higher = larger / more extended gas-phase ion. Put shortly:
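On a timsTOF Pro/HT (dda-PASEF, nitrogen, ~2.4 mbar), synthetic peptide pools were analysed after a 120-min nanoflow C18 separation at 60 °C and identified in MaxQuant. Three reference ions served for 1/K0 calibration, with run-wise alignment to the median iRT peptide deviation. Collision cross section comes from the Mason-Schamp equation, using the most abundant feature per charge state averaged over 1–3 technical replicates.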

Where [1] appears, read: charge state: 2, modification: Methyl (K).
Where [2] appears, read: charge state: 3, modification: Methyl (K).
The mark [3] stands for this setting: charge state: 2, modification: Acetyl (K).
Where [4] appears, read: charge state: 3, modification: Acetyl (K).
The mark [5] stands for this setting: charge state: 2, modification: Glutarylation.
The mark [6] stands for this setting: charge state: 3, modification: Glutarylation.
Where [7] appears, read: charge state: 2, modification: Propionyl.
Where [8] appears, read: charge state: 2, modification: Trimethyl (K).
Where [9] appears, read: charge state: 3, modification: Trimethyl (K).
Setting [10] is: charge state: 2, modification: GlyGly (K).
The mark [11] stands for this setting: charge state: 3, modification: GlyGly (K).
Where [12] appears, read: charge state: 2, modification: Phospho (Y).
The mark [13] stands for this setting: charge state: 3, modification: Phospho (Y).
Setting [14] is: charge state: 2, modification: Biotin.
Setting [15] is: charge state: 2, modification: Malonyl.
[16] abbreviates: charge state: 2, modification: Succinyl.
Setting [17] is: charge state: 2, modification: Crotonyl.
[18] abbreviates: charge state: 3, modification: Crotonyl.
Setting [19] is: charge state: 2, modification: Dimethyl (K).
[20] abbreviates: charge state: 3, modification: Dimethyl (K).
Where [21] appears, read: charge state: 2, modification: Formyl.
Setting [22] is: charge state: 2, modification: Hydroxyproline.
Where [23] appears, read: charge state: 3, modification: Hydroxyproline.
Setting [24] is: charge state: 2, modification: Methyl (R).
Where [25] appears, read: charge state: 3, modification: Methyl (R).

As to “VSPASSVDSNIPSSQGYKK [_VSPASSVDSNIPSSQGYK(Methyl (K))K_]”, the collision cross section by setting is: under setting [1], 486.85 ± 1.2 Å²; under setting [2], 544.11 ± 0.42 Å².
On to “DASTLQSQKAEGTGDAK [_DASTLQSQK(Acetyl (K))AEGTGDAK_]”, for which the collision cross section runs as follows: under setting [3], 431.11 ± 1.6 Å²; under setting [4], 508.84 ± 0.99 Å².
Regarding “FLQEFYQDDELGKK [_FLQEFYQDDELGK(Gluratylation)K_]”, the collision cross section by setting is: under setting [5], 453.64 ± 1.5 Å²; under setting [6], 517.26 Å².
On to “PSVGSQSNQAGQGKR [_PSVGSQSNQAGQGK(Acetyl (K))R_]”, for which the collision cross section is given as 409.31 ± 3.1 Å² under setting [3] and 465.77 ± 2.3 Å² under setting [4].
Consider “AGQKLIDVNHYAK [_AGQK(Propionyl)LIDVNHYAK_]”, for which the collision cross section runs as follows: under setting [7], 432.1 ± 1.1 Å²; (charge state: 3, modification: Propionyl) 484.45 Å².
For “DTGEKLTVAENEAETK [_DTGEK(Trimethyl (K))LTVAENEAETK_]”, the collision cross section by setting is: under setting [8], 443.08 Å²; under setting [9], 490.09 ± 1.8 Å².
For the sequence “AGQKLIDVNHYAK [_AGQK(GlyGly (K))LIDVNHYAK_]”, the collision cross section was found to be 433.04 ± 1.4 Å² under setting [10] and 485.98 ± 1.6 Å² under setting [11].
For the sequence IYHPNVDK [_IY(Phospho (Y))HPNVDK_], the collision cross section under setting [12] came to 353.97 ± 0.065 Å² and the collision cross section under setting [13] is recorded as 437.48 Å².
The sequence LDEKENLSAK [_LDEK(Biotin)ENLSAK_] yielded a collision cross section under setting [14] of 382.87 Å².
On to “SLEEEGAAHSGKR [_SLEEEGAAHSGK(Malonyl)R_]”, for which, under setting [15], the collision cross section was determined as 414.03 ± 1.2 Å².
LGSPSGKTGTCR [_LGSPSGK(Succinyl)TGTCR_] displayed a collision cross section under setting [16] of 368.12 ± 0.52 Å².
VGTASVLQPVKK [_VGTASVLQPVK(Crotonyl)K_] registered a collision cross section under setting [17] of 387.11 ± 0.8 Å².
As for “AGQKLIDVNHYAK [_AGQK(Crotonyl)LIDVNHYAK_]”, the collision cross section is reported as 434.02 ± 0.33 Å² under setting [17] and 485.3 ± 1.3 Å² under setting [18].
With “IINEPTAAAIAYGLDKK [_IINEPTAAAIAYGLDK(Dimethyl (K))K_]”, the collision cross section was 490.46 ± 1.8 Å² under setting [19] and 554.13 ± 0.54 Å² under setting [20].
Take “LLIVSTTPYSEKDTK [_LLIVSTTPYSEK(Acetyl (K))DTK_]”: the collision cross section worked out at 449.39 ± 2.3 Å² under setting [3] and 486.31 ± 3 Å² under setting [4].
Consider “GGPGSTLSFVGKR [_GGPGSTLSFVGK(Gluratylation)R_]”, for which the collision cross section is given as 392.32 ± 0.52 Å² under setting [5] and 441.96 ± 5.9 Å² under setting [6].
As to “LQEKVESAQSEQK [_LQEK(Trimethyl (K))VESAQSEQK_]”, the collision cross section is, setting by setting: under setting [8], 419.24 ± 2.2 Å²; under setting [9], 470.87 ± 1.8 Å².
As to “ATVASSTQKFQDLGVK [_ATVASSTQK(Formyl)FQDLGVK_]”, the collision cross section under setting [21] is listed as 442.05 ± 0.78 Å².
Consider “FDDTNPEKEEAK [_FDDTNPEK(Acetyl (K))EEAK_]”, for which the collision cross section was found to be 394.25 ± 1.3 Å² under setting [3] and 440.01 ± 0.78 Å² under setting [4].
Consider “GFLQPPPLRQPR [_GFLQPPPLR(Citrullination (R))QPR_]”, for which the collision cross section runs as follows: (charge state: 2, modification: Citrullination (R)) 391.62 ± 0.23 Å²; (charge state: 3, modification: Citrullination (R)) 460.68 Å².
In turn, LLEQKTQESQK [_LLEQK(Biotin)TQESQK_] gave a collision cross section under setting [14] of 419.49 ± 1.1 Å².
With “VGVEAKQPNSAIR [_VGVEAKQP(Hydroxyproline)NSAIR_]”, the collision cross section is, setting by setting: under setting [22], 405.11 ± 0.27 Å²; under setting [23], 482.65 ± 0.83 Å².
Regarding “GRGTSQLAEGATAK [_GR(Methyl (R))GTSQLAEGATAK_]”, the collision cross section was determined as 391.78 ± 1.4 Å² under setting [24] and 464.6 ± 2.7 Å² under setting [25].
Take “VDIDAPDVSIEGPDAKLK [_VDIDAPDVSIEGPDAK(Acetyl (K))LK_]”: the collision cross section under setting [3] is 462.55 ± 2.9 Å².
As to SYHLQIVTK [_SY(Phospho (Y))HLQIVTK_], the collision cross section reads like this: under setting [12], 357.29 ± 0.065 Å²; under setting [13], 461.35 ± 0.12 Å².
As to “SKLLFSNTAAQK [_SK(Propionyl)LLFSNTAAQK_]”, the collision cross section under setting [7] amounted to 398.2 ± 1.4 Å².
Turning to “TLTPASSPVSSPSKHGDR [_TLTPASSPVSSPS(HexNAc (ST))KHGDR_]”, under “charge state: 3, modification: HexNAc (ST)”, the collision cross section was 519.55 ± 0.18 Å².
As to PARGLYSR [_PAR(Methyl (R))GLYSR_], the collision cross section worked out at 338.81 ± 0.66 Å² under setting [24] and 407.19 Å² under setting [25].
On to “LQAAYAGDKADDIQK [_LQAAYAGDK(Dimethyl (K))ADDIQK_]”, for which the collision cross section came to 436.04 ± 1.1 Å² under setting [19] and 470.88 ± 1.6 Å² under setting [20].
Sequence “ANLEKAQAELVGTADEATR [_ANLEK(Methyl (K))AQAELVGTADEATR_]” displayed a collision cross section under setting [1] of 471.05 Å² and a collision cross section under setting [2] of 523.1 ± 0.87 Å².
“DKALPLEAEVAPVK [_DK(Acetyl (K))ALPLEAEVAPVK_]” yielded a collision cross section under setting [3] of 407.82 ± 5.1 Å².
Take “PGGEGPQCEKTTDVK [_PGGEGPQCEK(GlyGly (K))TTDVK_]”: the collision cross section is 422.06 ± 1.9 Å² under setting [10] and 492.2 ± 3 Å² under setting [11].
With ATAVVDGAFK [_AT(HexNAc (ST))AVVDGAFK_], the collision cross section (charge state: 2, modification: HexNAc (ST)) came out at 362.47 ± 0.64 Å².
Turning to “TQAYQDQKPGTSGLR [_TQAYQDQK(GlyGly (K))PGTSGLR_]”, the collision cross section reads like this: under setting [10], 432.62 ± 1.4 Å²; under setting [11], 500.32 ± 0.35 Å².
Turning to “IHNAENIQPGEQKYEYK [_IHNAENIQPGEQK(GlyGly (K))YEYK_]”, the collision cross section under setting [11] is recorded as 529.6 ± 1.2 Å².
“FLQEFYQDDELGKK [_FLQEFYQDDELGK(Crotonyl)K_]” had a collision cross section under setting [17] of 450.33 ± 0.0083 Å².
Where the note is “charge state: 2, modification: Butyryl”, GAEKTEVAEPR [_GAEK(Butyryl)TEVAEPR_] yielded a collision cross section of 380.97 ± 1.3 Å².
For SKLLFSNTAAQK [_SK(Malonyl)LLFSNTAAQK_], the collision cross section under setting [15] was determined as 394.73 ± 0.61 Å².
Under setting [5], “GSLGAQKLANTCFNEIEK [_GSLGAQK(Gluratylation)LANTCFNEIEK_]” gave a collision cross section of 469.86 Å².
Take “SGKFTQQDIDEAK [_SGK(Malonyl)FTQQDIDEAK_]”: under setting [15], the collision cross section came out at 410.91 ± 0.58 Å².
With ASAISIKLGSSK [_ASAISIK(Biotin)LGSSK_], under setting [14], the collision cross section is reported as 410.18 ± 1.1 Å².
As to SGKFTQQDIDEAK [_SGK(Biotin)FTQQDIDEAK_], the collision cross section under setting [14] is recorded as 433.94 ± 2.7 Å².
“VQGGALEDSQLVAGVAFKK [_VQGGALEDSQLVAGVAFK(Acetyl (K))K_]” returned a collision cross section under setting [3] of 468.5 Å² and a collision cross section under setting [4] of 554.41 Å².
On to “IHVQSSSDSSDEPAEKR [_IHVQSSSDSSDEPAEK(Crotonyl)R_]”, for which the collision cross section is, setting by setting: under setting [17], 451.2 Å²; under setting [18], 506.27 ± 1.7 Å².
Take “VLTANSNPSSPSAAKR [_VLTANSNPSSPSAAK(Dimethyl (K))R_]”: the collision cross section is listed as 441.07 ± 1.1 Å² under setting [19] and 518.06 ± 0.76 Å² under setting [20].
As for “TEVLSPNSKVESK [_TEVLSPNSK(Crotonyl)VESK_]”, the collision cross section by setting is: under setting [17], 417.97 ± 0.81 Å²; under setting [18], 452.38 ± 1.3 Å².
Turning to “DLGKFQVATDALK [_DLGK(hydroxyisobutyryl)FQVATDALK_]”, the collision cross section (charge state: 2, modification: hydroxyisobutyryl) is 409.13 ± 0.55 Å².
TLDEILQEKK [_TLDEILQEK(Propionyl)K_] showed a collision cross section under setting [7] of 380.38 Å².
Sequence LDEKENLSAK [_LDEK(Acetyl (K))ENLSAK_] came in with a collision cross section under setting [3] of 366.13 ± 0.94 Å².
In turn, HGVYNPNK [_HGVY(Phospho (Y))NPNK_] showed a collision cross section under setting [12] of 346.37 ± 0.75 Å².
As to “LGVPGLPGYPGRQGPK [_LGVPGLP(Hydroxyproline)GYPGRQGPK_]”, the collision cross section came to 416.79 ± 1.1 Å² under setting [22] and 499.55 ± 1.2 Å² under setting [23].
Sequence SGKFTQQDIDEAK [_SGK(Formyl)FTQQDIDEAK_] had a collision cross section under setting [21] of 408.45 ± 0.19 Å².
As for “AAINQKLIETGER [_AAINQK(Trimethyl (K))LIETGER_]”, the collision cross section reads like this: under setting [8], 420.64 ± 0.75 Å²; under setting [9], 472.14 ± 3.7 Å².
Turning to “VYIASSSGSTAIKK [_VYIASSSGSTAIK(Succinyl)K_]”, the collision cross section by setting is: under setting [16], 413.08 ± 1.1 Å²; (charge state: 3, modification: Succinyl) 508.16 ± 1.6 Å².
On to TTEETSKPK [_TTEETSK(Dimethyl (K))PK_], for which the collision cross section is, setting by setting: under setting [19], 338.18 ± 1.5 Å²; under setting [20], 409.31 Å².
In turn, “ITESVAETAQTIKK [_ITESVAETAQTIK(GlyGly (K))K_]” returned a collision cross section under setting [10] of 453.63 ± 0.95 Å² and a collision cross section under setting [11] of 514.8 ± 1.1 Å².
For “VPTTEKPTVTVNFR [_VPTTEK(Malonyl)PTVTVNFR_]”, the collision cross section by setting is: under setting [15], 427.18 ± 3.1 Å²; (charge state: 3, modification: Malonyl) 511.14 ± 0.89 Å².
